Measurements from patent publication US20230192842A1 (published 2023).
Where a chain is given by its changes, count along the chain named.

Tests used:
[1] = molecular target: human CLDN3 S42A mutant on RKO KO cells (human) (UniProt O15551); assay: flow cytometry, % 906-mAb-PE positive of live cells
[2] = molecular target: T1, human CLDN3 E153A mutant on RKO KO cells (human, UniProt O15551 1-220); assay: as above
T1 construct: Single-point alanine mutant, monoclonal RKO KO line with GFP
T1 chain: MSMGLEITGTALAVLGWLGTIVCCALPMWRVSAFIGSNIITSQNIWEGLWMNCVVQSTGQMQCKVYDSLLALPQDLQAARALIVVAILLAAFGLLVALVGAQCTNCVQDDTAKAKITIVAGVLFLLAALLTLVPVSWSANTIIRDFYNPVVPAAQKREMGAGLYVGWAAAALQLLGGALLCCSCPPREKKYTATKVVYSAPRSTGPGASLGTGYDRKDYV
Experimental: (§1) Flow cytometry. RKO KO target cells were seeded for flow cytometry as described in previous sections. Wells were topped up with flow buffer (PBS+2% FBS+2 mM EDTA+0.05% sodium azide) and plates were centrifuged at 300×g for 5 minutes. Supernatant was flicked off, cells were resuspended in 150 uL flow buffer. Plate was centrifuged at 300×g for 5 minutes. Supernatant was flicked off and cells were resuspended in 50 uL IgG block at 1:100 for 10 minutes at RT. Following incubation, plate was washed twice as above. Cells were resuspended in 50 uL of diluted antibodies (all a 1 in 300 dilution) in flow buffer, or flow buffer alone (unstained control). Cells were incubated for 30 minutes at RT. After incubation, plates were washed twice with 150 uL flow buffer. […]
(§2) Data Analysis: Flow Cytometry. Flow cytometry data was analysed using FLOWJO and further analysed in Microsoft excel and RStudio. […] Statistics for % PE-positive cells (as % of live cells) and Median Fluorescence Intensity (MFI) were calculated in FLOWJO and exported to Microsoft Excel for further analysis. […] Briefly, MFI was log 10 transformed and a mixed model was used with a fixed effect for cell line and a random effect for Plate, whilst % Parent was analysed on a linear scale in a mixed model with a fixed effect for cell line and a random effect for plate.

[3] = molecular target: T2, human CLDN3 N38A mutant on RKO KO cells (human, UniProt O15551 1-220); assay: as above
T2 construct: Single-point alanine mutant, monoclonal RKO KO line with GFP
T2 chain: T1 chain with N38A, A153E
Experimental: as §1, §2

[4] = molecular target: human CLDN3 F34A mutant on RKO KO cells (human) (UniProt O15551); assay: flow cytometry, 906-mAb-PE on RKO KO cells expressing the mutant
human CLDN3 F34A mutant on RKO KO cells (human), sequence (O15551 whole entry F34A): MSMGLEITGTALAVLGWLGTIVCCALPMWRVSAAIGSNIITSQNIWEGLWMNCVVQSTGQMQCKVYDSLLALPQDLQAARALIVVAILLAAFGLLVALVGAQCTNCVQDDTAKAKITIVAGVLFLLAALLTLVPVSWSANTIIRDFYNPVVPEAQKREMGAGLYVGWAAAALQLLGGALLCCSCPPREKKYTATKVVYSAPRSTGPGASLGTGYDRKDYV

[5] = molecular target: human CLDN3 I39A mutant on RKO KO cells (human) (UniProt O15551); assay: as above
human CLDN3 I39A mutant on RKO KO cells (human), sequence (O15551 whole entry I39A): as the sequence (O15551 whole entry F34A) above, with A34F, I39A counted along it

[6] = molecular target: human CLDN3 I45A mutant on RKO KO cells (human) (UniProt O15551); assay: as above
human CLDN3 I45A mutant on RKO KO cells (human), sequence (O15551 whole entry I45A): as the sequence (O15551 whole entry F34A) above, with A34F, I45A counted along it

[7] = molecular target: human CLDN3 K156A mutant on RKO KO cells (human) (UniProt O15551); assay: as above
human CLDN3 K156A mutant on RKO KO cells (human), sequence (O15551 whole entry K156A): as the sequence (O15551 whole entry F34A) above, with A34F, K156A counted along it

[8] = molecular target: human CLDN3 N148A mutant on RKO KO cells (human) (UniProt O15551); assay: as above
human CLDN3 N148A mutant on RKO KO cells (human), sequence (O15551 whole entry N148A): as the sequence (O15551 whole entry F34A) above, with A34F, N148A counted along it

[9] = molecular target: human CLDN3 P149A mutant on RKO KO cells (human) (UniProt O15551); assay: as above
human CLDN3 P149A mutant on RKO KO cells (human), sequence (O15551 whole entry P149A): as the sequence (O15551 whole entry F34A) above, with A34F, P149A counted along it

[10] = molecular target: human CLDN3 P152A mutant on RKO KO cells (human) (UniProt O15551); assay: as above
human CLDN3 P152A mutant on RKO KO cells (human), sequence (O15551 whole entry P152A): as the sequence (O15551 whole entry F34A) above, with A34F, P152A counted along it

[11] = molecular target: human CLDN3 Q155A mutant on RKO KO cells (human) (UniProt O15551); assay: as above
human CLDN3 Q155A mutant on RKO KO cells (human), sequence (O15551 whole entry Q155A): as the sequence (O15551 whole entry F34A) above, with A34F, Q155A counted along it

[12] = molecular target: human CLDN3 Q43A mutant on RKO KO cells (human) (UniProt O15551); assay: as above
human CLDN3 Q43A mutant on RKO KO cells (human), sequence (O15551 whole entry Q43A): as the sequence (O15551 whole entry F34A) above, with A34F, Q43A counted along it

[13] = molecular target: human CLDN3 R157A mutant on RKO KO cells (human) (UniProt O15551); assay: as above
human CLDN3 R157A mutant on RKO KO cells (human), sequence (O15551 whole entry R157A): as the sequence (O15551 whole entry F34A) above, with A34F, R157A counted along it

[14] = molecular target: human CLDN3 S42A mutant on RKO KO cells (human) (UniProt O15551); assay: as above
[15] = molecular target: human CLDN3 V150A mutant on RKO KO cells (human) (UniProt O15551); assay: as above
human CLDN3 V150A mutant on RKO KO cells (human), sequence (O15551 whole entry V150A): as the sequence (O15551 whole entry F34A) above, with A34F, V150A counted along it

[16] = molecular target: T1, human CLDN3 E153A mutant on RKO KO cells; assay: as above
Experimental: (§3) Flow cytometry. RKO KO target cells were seeded for flow cytometry as described in previous sections. Wells were topped up with flow buffer (PBS+2% FBS+2 mM EDTA+0.05% sodium azide) and plates were centrifuged at 300×g for 5 minutes. Supernatant was flicked off, cells were resuspended in 150 uL flow buffer. Plate was centrifuged at 300×g for 5 minutes. Supernatant was flicked off and cells were resuspended in 50 uL IgG block at 1:100 for 10 minutes at RT. Following incubation, plate was washed twice as above. Cells were resuspended in 50 uL of diluted antibodies (all a 1 in 300 dilution) in flow buffer, or flow buffer alone (unstained control). Cells were incubated for 30 minutes at RT. After incubation, plates were washed twice with 150 uL flow buffer. Cells were then resuspended in 100 uL flow buffer containing DAPI at a 1:200 concentration as a live/dead stain. Cells were run immediately on the CYTOFLEXS. Cells were acquired on fast flow rate, with a stopping condition of 10,000 live cells (based on Total>Singlets>Live).
(§4) Cell lines for analysis included RKO KO, a CLDN3 knockout (included as a negative control), RKO KO CLDN3 mutant cells (with various single-amino acid CLDN3 mutations) and RKO KO CLDN3 WT cells (positive control). RKO KO CLDN3 mutant cell lines were selected and generated as outlined in previous sections.

[17] = molecular target: T2, human CLDN3 N38A mutant on RKO KO cells; assay: as above
Experimental: as §3, §4

[18] = molecular target: T1, human CLDN3 E153A mutant on RKO KO cells; assay: as above
Experimental: as §1, §2

[19] = molecular target: T2, human CLDN3 N38A mutant on RKO KO cells; assay: as above
Experimental: as §1, §2

human CLDN3 S42A mutant on RKO KO cells (human), sequence (O15551 whole entry S42A): as the sequence (O15551 whole entry F34A) above, with A34F, S42A counted along it

B1: 906-mAb (anti-CLDN3 906-mAb, monoclonal antibody version of the scFv of 906-009_LNGFR) (antibody, V domains shown)
VH: QVQLVQSGAEVKKPGSSVKVSCKASGYTFTNYWVHWVRQAPGQGLEWMGRIEPNSSGSQYNEKFKNRVTITADKSTSTAYMELSSLRSEDTAVYYCARGVMVPLDYWGQGTLVTVSS
VL: DIQMTQSPSSLSASVGDRVTITCKASQDINRYIAWYQQKPGKAPKLLIHYTSTLQPGVPSRFSGSGSGTDFTLTISSLQPEDFATYYCLQYETLYSFGQGTKLEIK
For B1, the Change in % Parent (906-mAb-PE positive cells) vs CLDN3 WT [1] was 0.1%, the “Change in % Parent (906-mAb-PE positive cells) vs CLDN3 WT” value [2] was -94.5% and the “Change in % Parent (906-mAb-PE positive cells) vs CLDN3 WT” value [3] was -99.2%. It also gave a fold change MFI vs CLDN3 WT (fold vs CLDN3 WT) [4] of 0.4, a fold change MFI vs CLDN3 WT (fold vs CLDN3 WT) [5] of 0.95 and a fold change MFI vs CLDN3 WT (fold vs CLDN3 WT) [6] of 3.17. The fold change MFI vs CLDN3 WT (fold vs CLDN3 WT) [7] was 0.73, the fold change MFI vs CLDN3 WT (fold vs CLDN3 WT) [8] was 2.75 and the fold change MFI vs CLDN3 WT (fold vs CLDN3 WT) [9] was 2.03. For the same binder, the fold change MFI vs CLDN3 WT (fold vs CLDN3 WT) [10] was 5.07, the fold change MFI vs CLDN3 WT (fold vs CLDN3 WT) [11] was 3.4 and the fold change MFI vs CLDN3 WT (fold vs CLDN3 WT) [12] was 2.68. The fold change MFI vs CLDN3 WT (fold vs CLDN3 WT) [13] was 1.31, the fold change MFI vs CLDN3 WT (fold vs CLDN3 WT) [14] was 3.91 and the fold change MFI vs CLDN3 WT (fold vs CLDN3 WT) [15] was 2.98. The binding result [16] was “no binding”, the binding result [17] was “no binding” and the “fold change MFI vs CLDN3 WT” value [18] was 0.01 fold vs CLDN3 WT. For the same binder, the “fold change MFI vs CLDN3 WT” value [19] was 0.01 fold vs CLDN3 WT.
